Assay results taken from patent publication US20160046684A1, “Methods and compositions for treatment of PTP1B-related diseases” (BROWN UNIVERSITY, priority 2014, published 2016).
Changes are numbered by the printed parent chain.

B1: PTP1BL192A: PTP1B1-301 mutant with mutation in the α3 helix (protein)
chain: MEMEKEFEQIDKSGSWAAIYQDIRHEASDFPCRVAKLPKNKNRNRYRDVSPFDHSRIKLHQEDNDYINASLIKMEEAQRSYILTQGPLPNTCGHFWEMVWEQKSRGVVMLNRVMEKGSLKCAQYWPQKEEKEMIFEDTNLKLTLISEDIKSYYTVRQLELENLTTQETREILHFHYTTWPDFGVPESPASFANFLFKVRESGSLSPEHGPVVVHCSAGIGRSGTFCLADTCLLLMDKRKDPSSVDIKKVLLEMRKFRMGLIQTADQLRFSYLAVIEGAKFIMGDSSVQDQWKELSHEDLEP
modifications: The sequence was designed and synthesized
notes: PTP1B1-301 mutant with mutation in the α3 helix
B2: PTP1BN193A: PTP1B1-301 mutant with mutation in the α3 helix (protein)
chain: B1 chain with A192L, N193A
modifications: The sequence was designed and synthesized
notes: as for B1

How the values were obtained:
[1] = molecular target: T1, PTP1B1-301 (Homo sapiens, UniProt P18031); assay: NMR relaxation (R1, R2, hetNOE) of inhibitor-bound PTP1B1-301; settings: 1:3 ratio of PTP1B1-301 to inhibitor, compared to apo PTP1B1-301
T1 construct: His6 (cleaved yes); made in house; host or cells: E. coli
T1 sequence (P18031 1-301): B1 chain with A192L
Description: Inhibitors were titrated into 200 μM ^15N-PTP1B at molar ratios of 1:1; 1:2, 1:3, 1:5 and 2D [^1H, ^15N] TROSY spectra at 850 MHz were recorded for each titration point. Inhibitors were solubilized in D6-DMSO at 25 mM. CS for PTP1B in the 2D [^1H, ^15N] TROSY spectrum caused by the addition of D6-DMSO were negligible. Chemical shift differences (Δδ) between PTP1B and inhibitor-bound PTP1B (3:1 molar ratio) spectra were calculated using: […]
Changes in motions of the domains of PTP1B1-301 bound to TCS-401 were measured by detecting nuclear relaxation time data at 500 MHz. See, FIG. 8A and FIG. 8B. Fast-timescale backbone dynamics were measured for ligand-free and inhibitor-bound (at 3:1 molar ratios) PTP1B constructs at either 850 or 500 MHz 1H Larmor frequency. ^15N longitudinal (R1) and transverse (R2) relaxation rates and ^15N [^1H]-NOE (hetNOE) measurements were acquired. The hetNOE measurements were determined from a pair of interleaved spectra acquired with or without pre-saturation, and a recycle delay of 5 seconds (only at 500 MHz ^1H Larmor frequency). Error was determined using signal to noise ratio for a given peak.

[2] = tested on: PTP1B; assay: Phosphatase activity of PTP1B constructs against pNPP (enzyme assay); type: biochemical, human; settings: pNPP substrate, pH 7.5, 0.015 μM PTP1B (FIG. 27, 32A, 32B)
Description: Phosphatase activity of PTP1B against the general PTP/DUSP substrate, p-nitrophenyl phosphate (pNPP), was tested in 50 mM HEPES pH 7.5, 150 mM NaCl, 0.5 mM TCEP. 40 μl of enzyme at a 1.5 μM concentration was added to 60 μl of pNPP substrate resuspended in the reaction buffer. See, FIG. 25. The final concentrations of pNPP used in this experiment were […]. The enzyme was incubated with the substrate at 30° C. for 30 min, after which 100 μl of 1 M NaOH was added to a final concentration of 0.5 M NaOH to quench the reaction. Absorbance was measured at 405 nm and the final concentration of p-nitrophenol (pNP) was calculated using the molar extinction coefficient of 18000 M-1 cm-1. A control reaction in which substrate was incubated in the absence of enzyme was subtracted from all other experimental values. All experiments were performed in triplicate.
Enzyme assays were performed at pH 7.5 with 0.15 μM PTP1B to compare the activities of wild-type PTP1B1-301 to mutants with mutations in the L11 loop: PTP1BY152A/F, PTP1BY153A/F, and PTP1BYAYA. See, FIG. 17. […] Ibid. […] Ibid. […] Ibid. […] Ibid. […] Ibid. […] Ibid.
Enzyme assays were performed at pH 7.5 with 0.015 μM PTP1B to compare the activities of wild-type PTP1B1-301 to mutants with mutations in the α3 helix such as PTP1BN193A. See, FIG. 27. […] Ibid. […] Ibid. […] Ibid. […] Ibid. […] Ibid. […] Ibid.
An enzyme assay was used to compare the activity of wild-type PTP1B1-301 to the activity of PTP1B1-284 P185G. See, FIG. 15. Enzyme assays were performed at pH 7.5 with 0.015 μM PTP1B to compare the activities of wild-type PTP1B1-301 to mutants with mutations in the α7 helix. See, FIG. 32A. In one embodiment, these point mutations were made in an amino acid sequence substantially similar to SEQ ID NO: 2.

[3] = Circular dichroism thermal denaturation (melting temperature); type: physicochemical; settings: CD spectropolarimetry, thermal denaturation at 208 nm, 2.5 μM protein
Description: Circular dichroism (CD) spectropolarimetry was used to measure the melting temperatures of PTP1BYAYA, PTP1B1-301, and PTP1B1-284. CD measurements were performed on a Jasco J-815 CD spectropolarimeter. PTP1B samples were dialyzed at 4° C. into 10 mM sodium phosphate, pH 6.8, 150 mM NaCl. Samples were then diluted to a protein concentration of 2.5 μM and placed in a 0.2-cm glass cuvette. Wavelength scans were performed in the far-UV region from 260 to 195 nm at 25° C. at a speed of 20 nm/min. Thermal denaturation scans were performed at 208 nm from 25 to 90° C. at a scan speed of 1° C./min. Raw data were processed using the denatured protein analysis routine implemented in the SepctraAnalysis software and converted to mean residue molar ellipticity using the following equation: [θ]=θ/(10×C×1×n), where θ is ellipticity, C is the molar concentration, 1 is the cell path length in centimeters, and n is the number of residues. Plots are the average of three replicate scans.

Row | Molecule | effect of inhibitor binding on PTP1B1-301 ps-ns backbone dynamics [1] | Km [2] [µM] | kcat [2] [s⁻¹] | melting point (Tm) [3] [°C]
1 | CCc1oc2cc(S(=O)(=O)Nc3ccc(S(=O)(=O)Nc4nccs4)cc3)ccc2c1C(=O)c1cc(Br)c(O)c(Br)c1 [allosteric site inhibitor, 3-(3,5-Dibromo-4-hydroxy-benzoyl)-2-ethyl-benzofuran-6-sulfonic acid-(4-(thiazol-2-ylsulfamyl)-phenyl)-amide] | minimal effect |  |  | 
2 | O=C(O)C(=O)Nc1sc2c(c1C(=O)O)CCNC2 [TCS-401] | loss of motions in the α7 helix and part of the WPD loop |  |  | 
3 | B1 |  | 610 ± 40 | 1.86 ± 0.04 | 53.89
4 | B2 |  | 830 ± 70 | 1.7 ± 0.06 | 49.1
